According to patent US20240091361A1, “T CELL RECEPTORS TARGETING RAS MUTATIONS AND USES THEREOF” (MEMORIAL SLOAN-KETTERING CANCER CENTER, priority 2021, published 2024):

Key:
[1] = molecular target: T1, FMNL1 peptide on HLA-A*11:01 (human); assay: cytokine release
T1 peptide: QEAGADTPGK

[2] = molecular target: T2, DAZP1 peptide on HLA-A*11:01 (human); assay: cytokine release
T2 peptide: NNSGADEIGK

[3] = molecular target: T3, MARF1 peptide on HLA-A*11:01 (human); assay: cytokine release
T3 peptide: LKLGADGSGP

[4] = molecular target: T4, FOXL2 peptide on HLA-A*11:01 (human); assay: cytokine release
T4 peptide: AGAGADGYGY

[5] = molecular target: T5, NDF2 peptide on HLA-A*11:01 (human); assay: cytokine release
T5 peptide: TEQGADGAGR

[6] = molecular target: T6, KRAS wild type (10-mer) peptide on HLA-A*11:01 (human); assay: cytokine release
T6 peptide: VVVGAGGVGK

[7] = molecular target: T7, EFMT2 peptide on HLA-A*11:01 (human); assay: cytokine release
T7 peptide: MSSGADGGGG

[8] = molecular target: T8, CHADL peptide on HLA-A*11:01 (human); assay: cytokine release
T8 peptide: RQCGADKVGK

[9] = molecular target: T9, MYLK peptide on HLA-A*11:01 (human); assay: cytokine release
T9 peptide: GGVGADGGGS

[10] = molecular target: T10, PBX3 peptide on HLA-A*11:01 (human); assay: cytokine release
T10 peptide: GHEGADGDGR

[11] = molecular target: T11, GEM (also listed as SEQ ID NOs 82, 106, 130, 141) peptide on HLA-A*11:01 (human); assay: cytokine release
T11 peptide: AVFGAGGVGK

[12] = molecular target: T12, HMCN2 peptide on HLA-A*11:01 (human); assay: cytokine release
T12 peptide: IKQGADGSGT

[13] = molecular target: T13, KRAS G12D (9-mer; the same sequence in NRAS G12D and HRAS G12D) peptide on HLA-A*11:01 (human); assay: cytokine release
T13 peptide: VVGADGVGK

[14] = molecular target: T14, CC88B peptide on HLA-A*11:01 (human); assay: cytokine release
T14 peptide: LRLGADGAGS

[15] = molecular target: T15, HIC1 peptide on HLA-A*11:01 (human); assay: cytokine release
T15 peptide: GVPGPDGKGK

[16] = molecular target: T16, GTR14; GTR3 (the same peptide, also listed as SEQ ID NO 88) peptide on HLA-A*11:01 (human); assay: cytokine release
T16 peptide: QAHGADRSGK

[17] = molecular target: T17, TBL3 peptide on HLA-A*11:01 (human); assay: cytokine release
T17 peptide: LSSGSDGLVK

[18] = molecular target: T18, PER1 peptide on HLA-A*11:01 (human); assay: cytokine release
T18 peptide: PLEGADGGGD

[19] = molecular target: T19, ZN646 peptide on HLA-A*11:01 (human); assay: cytokine release
T19 peptide: PEDGADGWGP

[20] = molecular target: T20, DYH8 peptide on HLA-A*11:01 (human); assay: cytokine release
T20 peptide: KVAGADGKGI

[21] = molecular target: T21, ADA2C peptide on HLA-A*11:01 (human); assay: cytokine release
T21 peptide: GAGGADGQGA

[22] = molecular target: T22, MED13 peptide on HLA-A*11:01 (human); assay: cytokine release
T22 peptide: NNDGADGMGI

[23] = molecular target: T23, MICU1 peptide on HLA-A*11:01 (human); assay: cytokine release
T23 peptide: YFFGADLKGK

[24] = molecular target: T24, KRAS G12D (10-mer; the same sequence in NRAS G12D and HRAS G12D) peptide on HLA-A*11:01 (human); assay: multimer staining
T24 peptide: VVVGADGVGK

[25] = molecular target: T25, KAD3 peptide on HLA-A*11:01 (human); assay: cytokine release
T25 peptide: VIMGAPGSGK

[26] = molecular target: T26, RL7A peptide on HLA-A*11:01 (human); assay: cytokine release
T26 peptide: KVAPAPAVVK

[27] = molecular target: T27, KZF4 peptide on HLA-A*11:01 (human); assay: cytokine release
T27 peptide: HSVSSPTVGK

[28] = molecular target: T28, IL17F peptide on HLA-A*11:01 (human); assay: cytokine release
T28 peptide: KTLHGPAMVK

[29] = molecular target: T29, CPNS1 peptide on HLA-A*11:01 (human); assay: cytokine release
T29 peptide: AVMDSDTTGK

[30] = molecular target: T30, SHAN3 peptide on HLA-A*11:01 (human); assay: cytokine release
T30 peptide: TTVPSPASGK

[31] = molecular target: T31, CD166 peptide on HLA-A*11:01 (human); assay: cytokine release
T31 peptide: NVFEAPTIVK

[32] = molecular target: T32, CFA47 peptide on HLA-A*11:01 (human); assay: cytokine release
T32 peptide: MVFDSPTIGK

[33] = molecular target: T33, BMS1 peptide on HLA-A*11:01 (human); assay: cytokine release
T33 peptide: VVMGPPKVGK

[34] = molecular target: T34, IGM peptide on HLA-A*11:01 (human); assay: cytokine release
T34 peptide: LTESGPALVK

[35] = molecular target: T35, LEGL peptide on HLA-A*11:01 (human); assay: cytokine release
T35 peptide: SVADSDAVVK

[36] = molecular target: T36, GRIN1 peptide on HLA-A*11:01 (human); assay: cytokine release
T36 peptide: GTAGPPSAVK

[37] = molecular target: T37, CL056 peptide on HLA-A*11:01 (human); assay: cytokine release
T37 peptide: SSQSAPTTGK

[38] = molecular target: T38, SALL1 peptide on HLA-A*11:01 (human); assay: cytokine release
T38 peptide: SATSPPGSVK

[39] = molecular target: T39, SEZ6 peptide on HLA-A*11:01 (human); assay: cytokine release
T39 peptide: LSLEAPTVGK

[40] = molecular target: T40, CK049 peptide on HLA-A*11:01 (human); assay: cytokine release
T40 peptide: YSCPPPALVK

[41] = molecular target: T41, FLNA peptide on HLA-A*11:01 (human); assay: cytokine release
T41 peptide: VTIDGPSKVK

[42] = molecular target: T42, CPNS2 peptide on HLA-A*11:01 (human); assay: cytokine release
T42 peptide: SVMDSDTTGK

[43] = molecular target: T43, RSLAA peptide on HLA-A*11:01 (human); assay: cytokine release
T43 peptide: AVLGAPGVGK

[44] = molecular target: T44, K1671 peptide on HLA-A*11:01 (human); assay: cytokine release
T44 peptide: TTKSGPALGK

[45] = molecular target: T45, ABCF1 peptide on HLA-A*11:01 (human); assay: cytokine release
T45 peptide: STSPSDKVVK

B1: TCR 3 (TCR, V domains shown)
Valpha: AQTVTQSQPEMSVQEAETVTLSCTYDTSESDYYLFWYKQPPSRQMILVIRQEAYKQQNATENRFSVNFQKAAKSFSLKISDSQLGDAAMYFCAYRSDGGATNKLIFGTGTLLAVQP
Vbeta: EAQVTQNPRYLITVTGKKLTVTCSQNMNHEYMSWYRQDPGLGLRQIYYSMNVEVTDKGDVPEGYKVSRKEKRNFPLILESPSPNQTSLYFCASSLGAGGYNSPLHFGNGTRLTVT
[1]
  binding result: no recognition
[2]
  binding result: no recognition
[3]
  binding result: no recognition
[4]
  binding result: no recognition
[5]
  binding result: no recognition
[6]
  binding result: no recognition
[7]
  binding result: no recognition
[8]
  binding result: no recognition
[9]
  binding result: no recognition
[10]
  binding result: no recognition
[11]
  binding result: no recognition
[12]
  binding result: no recognition
[13]
  binding result: recognises
[14]
  binding result: no recognition
[15]
  binding result: no recognition
[16]
  binding result: no recognition
[17]
  binding result: no recognition
[18]
  binding result: no recognition
[19]
  binding result: no recognition
[20]
  binding result: no recognition
[21]
  binding result: no recognition
[22]
  binding result: no recognition
[23]
  binding result: no recognition
[24]
  binding result: recognises

B2: TCR 2 (TCR, V domains shown)
Valpha: AQTVTQSQPEMSVQEAETVTLSCTYDTSENNYYLFWYKQPPSRQMILVIRQEAYKQQNATENRFSVNFQKAAKSFSLKISDSQLGDTAMYFCAFMYPSQGGSEKLVFGKGMKLTVNP
Vbeta: ETGVTQSPTHLIKTRGQQVTLRCSSQSGHNTVSWYQQALGQGPQFIFQYYREEENGRGNFPPRFSGLQFPNYSSELNVNALELDDSALYLCASSSPGFRSYGYTFGSGTRLTVV
[25]
  binding result: no recognition
[26]
  binding result: no recognition
[6]
  binding result: no recognition
[27]
  binding result: no recognition
[28]
  binding result: no recognition
[29]
  binding result: no recognition
[30]
  binding result: no recognition
[11]
  binding result: no recognition
[31]
  binding result: no recognition
[32]
  binding result: no recognition
[33]
  binding result: no recognition
[34]
  binding result: no recognition
[13]
  binding result: recognises
[35]
  binding result: no recognition
[36]
  binding result: no recognition
[37]
  binding result: no recognition
[38]
  binding result: no recognition
[39]
  binding result: no recognition
[40]
  binding result: no recognition
[41]
  binding result: no recognition
[42]
  binding result: no recognition
[43]
  binding result: no recognition
[44]
  binding result: no recognition
[45]
  binding result: no recognition
[24]
  binding result: recognises
